Changes are numbered by the printed parent chain.
Key:
[1] = molecular target: T1, defense-associated sirtuin 2 (DSR2), full-length wild type (Bacillus subtilis 29R, UniProt P0DXN8 1-1005); assay: AUC; sedimentation velocity, samples at 1 mg/mL in gel-filtration buffer (25 mM Tris-HCl pH 7.5, 150 mM NaCl, 2 mM DTT), SEDFIT and SEDPHAT; settings: both partners purified
T1 construct: DSR2 from Bacillus subtilis 29R, WP_029317421; Cloned into the 2CT-10 vector (Addgene plasmid #55209) with His-MBP tag and TEV site; DSR2-TTP was cloned into a pET-derived vector with an N-terminal His tag; also called WT DSR2; full-length DSR2; source: E. coli Rosetta (DE3), purified (Ni-NTA, TEV cleavage, anion exchange, gel filtration); not shown: His, N-terminal, cleaved; MBP, N-terminal, …
T1 sequence (looked up): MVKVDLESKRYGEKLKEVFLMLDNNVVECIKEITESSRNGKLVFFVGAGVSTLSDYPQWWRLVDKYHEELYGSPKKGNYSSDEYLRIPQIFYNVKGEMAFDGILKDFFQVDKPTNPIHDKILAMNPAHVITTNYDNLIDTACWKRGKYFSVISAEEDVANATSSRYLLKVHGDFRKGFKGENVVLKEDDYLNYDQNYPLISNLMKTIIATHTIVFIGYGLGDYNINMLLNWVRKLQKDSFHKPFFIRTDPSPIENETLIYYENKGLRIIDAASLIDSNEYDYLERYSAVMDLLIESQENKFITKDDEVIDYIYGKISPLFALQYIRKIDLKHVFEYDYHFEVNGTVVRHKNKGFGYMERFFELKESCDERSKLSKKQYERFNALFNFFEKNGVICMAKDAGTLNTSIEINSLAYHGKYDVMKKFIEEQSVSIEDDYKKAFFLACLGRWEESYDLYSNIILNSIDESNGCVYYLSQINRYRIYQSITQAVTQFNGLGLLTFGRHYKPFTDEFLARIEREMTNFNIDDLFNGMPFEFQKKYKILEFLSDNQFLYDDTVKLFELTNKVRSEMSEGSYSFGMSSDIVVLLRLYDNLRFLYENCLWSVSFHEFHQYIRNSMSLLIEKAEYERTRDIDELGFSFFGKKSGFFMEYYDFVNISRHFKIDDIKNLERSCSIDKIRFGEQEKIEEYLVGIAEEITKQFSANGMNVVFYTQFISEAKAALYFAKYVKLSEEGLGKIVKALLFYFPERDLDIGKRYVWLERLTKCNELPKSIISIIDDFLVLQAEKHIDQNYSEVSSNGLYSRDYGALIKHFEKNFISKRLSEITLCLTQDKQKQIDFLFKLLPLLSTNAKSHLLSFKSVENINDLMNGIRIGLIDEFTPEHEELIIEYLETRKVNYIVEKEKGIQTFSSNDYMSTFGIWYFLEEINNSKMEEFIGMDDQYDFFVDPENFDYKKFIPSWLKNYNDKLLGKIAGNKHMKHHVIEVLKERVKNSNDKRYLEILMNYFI

[2] = molecular target: T2, DSR2 K960A/D993A (Bacillus subtilis 29R, UniProt P0DXN8 1-1005, K960A | D993A); assay: pull-down; N-terminal His-tagged TTP or DSAD1 on Ni-NTA agarose beads, excess untagged DSR2 variants added, 1 h at 4 °C, 25 mM Tris-HCl pH 7.5, 300 mM NaCl, washes with 10 mM imidazole, SDS-PAGE with Coomassie staining; settings: both partners purified
T2 construct: DSR2 from Bacillus subtilis 29R, WP_029317421, with K960A and D993A; source: E. coli Rosetta (DE3), purified (Ni-NTA, TEV cleavage, anion exchange, gel filtration); not shown: His, N-terminal, cleaved; MBP, N-terminal, cleaved
T2 sequence (looked up): T1 sequence (looked up) with K960A, D993A

B1: DSR anti-defense 1 (DSAD1), His-tagged (natural protein)
chain: MIEIFKDTGATHDLVYHSKINTFVWDVEFDIVLSDSKELNKCYFVKCFNPYRINGKCDFAVSSIDIFSEGKRLLIENEFNFKITKAVHVATSKDVTEIVLHLSERISSPFPIVKEVVYLD
notes: phage-encoded DSAD1, WP_004399562; aa 1-9 not built in the cryo-EM model; Cloned into a pET-derived vector with an N-terminal His tag; also called anti-DSR2 protein; His-tagged DSAD1; source: E. coli Rosetta (DE3), purified (Ni-NTA, anion exchange, gel filtration); not shown: His, N-terminal, kept
- binding result [1]: binds
- binding result [2]: binds

Source: publication PMC10973363, “Insights into the modulation of bacterial NADase activity by phage proteins” (Nature Communications, 2024)
